Test results taken from patent US20200317768A1 (published 2020).
Positions count from the first letter of the chain named. Names may count otherwise.

T1: human FcγRIIaR extracellular domain, His-tagged (human, UniProt P12318 34-217)
T1 construct: also called human FcgRIIaR; FcγRIIa (type R); not shown: His-tag added to the C-terminus
T1 chain: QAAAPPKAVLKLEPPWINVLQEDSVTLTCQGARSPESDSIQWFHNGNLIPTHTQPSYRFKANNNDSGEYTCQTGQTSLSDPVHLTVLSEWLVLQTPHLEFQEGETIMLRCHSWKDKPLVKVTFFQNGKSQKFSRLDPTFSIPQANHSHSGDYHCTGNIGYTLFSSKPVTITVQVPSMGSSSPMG

T2: human FcγRIIb extracellular domain, His-tagged (human, UniProt P31994 43-217)
T2 construct: also called human FcgRIIb; not shown: His-tag added to the C-terminus
T2 sequence: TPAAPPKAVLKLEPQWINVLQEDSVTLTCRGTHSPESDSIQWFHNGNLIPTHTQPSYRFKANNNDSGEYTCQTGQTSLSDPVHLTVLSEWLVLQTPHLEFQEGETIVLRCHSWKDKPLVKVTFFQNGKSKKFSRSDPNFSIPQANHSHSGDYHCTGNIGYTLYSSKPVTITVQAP

T3: cynomolgus monkey FcγRIIa1 extracellular domain, His-tagged (cynomolgus monkey)
T3 construct: also called cyno FcgRIIa1; cynoFcγRIIa1; not shown: His-tag added to the C-terminus
T3 chain: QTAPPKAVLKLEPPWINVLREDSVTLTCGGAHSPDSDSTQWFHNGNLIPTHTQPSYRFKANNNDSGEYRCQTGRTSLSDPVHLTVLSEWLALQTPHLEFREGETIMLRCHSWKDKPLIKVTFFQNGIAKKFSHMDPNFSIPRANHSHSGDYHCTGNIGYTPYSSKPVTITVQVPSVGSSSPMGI

T4: cynomolgus monkey FcγRIIa3 extracellular domain, C-terminal His-tag (cynomolgus monkey)
T4 construct: also called cyno FcγRIIa3; cynoFcgRIIa3; not shown: His-tag added to C-terminus
T4 chain: T3 chain with P95T, T121A, A128S, H133P, D135N

T5: human FcγRIIb extracellular domain, C-terminal His-tag (human, UniProt P31994 43-217)
T5 construct: also called humanFcgRIIb; not shown: His-tag added to C-terminus
T5 sequence: T2 sequence

T6: human FcγRIIaH extracellular domain, C-terminal His-tag (human, UniProt P12318 34-217)
T6 construct: also called human FcγRIIa (type H); FcgRIIaH; not shown: His-tag added to C-terminus
T6 sequence: T1 chain with R134H

T7: cynomolgus monkey FcγRIIa2 extracellular domain, C-terminal His-tag (cynomolgus monkey)
T7 construct: also called cyno FcγRIIa2; cynoFcgRIIa2; not shown: His-tag added to C-terminus
T7 chain: T3 chain with P95T, T121A, I127K, A128S, K130N, D135N, R142Q

B1: MS1032LO06-SG1 (M103205H795-SG1/M103202L889-SK1) (antibody, human IgG1, kappa)
heavy: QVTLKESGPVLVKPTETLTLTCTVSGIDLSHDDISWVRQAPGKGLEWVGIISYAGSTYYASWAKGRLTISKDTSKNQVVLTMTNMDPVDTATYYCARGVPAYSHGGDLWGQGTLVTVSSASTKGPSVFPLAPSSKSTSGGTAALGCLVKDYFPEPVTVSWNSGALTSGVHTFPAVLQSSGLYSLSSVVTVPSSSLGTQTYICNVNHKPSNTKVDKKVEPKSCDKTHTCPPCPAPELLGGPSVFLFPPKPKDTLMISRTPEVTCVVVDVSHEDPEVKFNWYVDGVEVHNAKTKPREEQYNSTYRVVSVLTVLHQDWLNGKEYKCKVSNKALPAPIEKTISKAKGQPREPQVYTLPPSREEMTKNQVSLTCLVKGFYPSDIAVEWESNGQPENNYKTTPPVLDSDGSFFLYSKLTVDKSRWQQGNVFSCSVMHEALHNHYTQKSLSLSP
light: DIVMTQSPATLSLSPGERATLSCTSSQSVYHANWLSWFQQKPGQPPKLLIYWASTLAYGVPSRFSGSGSGTDFTLTISSLQPEDAATYYCAGGYGGGRYAFGQGTKVEIKRTVAAPSVFIFPPSDEQLKSGTASVVCLLNNFYPREAKVQWKVDNALQSGNSQESVTEQDSKDSTYSLSSTLTLSKADYEKHKVYACEVTHQGLSSPVTKSFNRGEC
notes: Anti-latent myostatin antibody; Parent of the Fc variants; copies: 2 + 2
B2: M103205H795-MY263/M103202L889-SK1 (antibody, human IgG1, kappa)
heavy: QVTLKESGPVLVKPTETLTLTCTVSGIDLSHDDISWVRQAPGKGLEWVGIISYAGSTYYASWAKGRLTISKDTSKNQVVLTMTNMDPVDTATYYCARGVPAYSHGGDLWGQGTLVTVSSASTKGPSVFPLAPSSKSTSGGTAALGCLVKDYFPEPVTVSWNSGALTSGVHTFPAVLQSSGLYSLSSVVTVPSSSLGTQTYICNVNHKPSNTKVDKKVEPKSCDKTHTCPPCPAPELLQGPSVFLFPPKPKDTLMISRTPEVTCVVVDVSDEDPEVKFNWYVDGVEVHNAKTKPREEQYNSTYRVVSVLTVLHQDWLNGKEYKCKVSNKALPKPIEKTISKAKGQPREPQVYTLPPSREEMTKNQVSLTCLVKGFYPSDIAVEWESNGQPENNYKTTPPVLDSDGSFFLYSKLTVDKSRWQQGNVFSCSVMHEALHNHYTQKSLSLSP
light: B1 light
notes: copies: 2 + 2
B3: M103205H795-MY260/M103202L889-SK1 (antibody, human IgG1, kappa)
heavy: B2 heavy with Q238M
light: B1 light
notes: copies: 2 + 2
B4: M103205H795-MY262/M103202L889-SK1 (antibody, human IgG1, kappa)
heavy: B2 heavy with Q238V
light: B1 light
notes: copies: 2 + 2
B5: M103205H795-MY201/M103202L889-SK1 (antibody, human IgG1, kappa)
heavy: B2 heavy with Q238N
light: B1 light
notes: Fc variant G236N/H268D/A330K (EU numbering) of SG1; also called MS1032LO06-MY201; copies: 2 + 2
B6: M103205H795-MY261/M103202L889-SK1 (antibody, human IgG1, kappa)
heavy: B2 heavy with Q238H
light: B1 light
notes: copies: 2 + 2
B7: MS_M103205H795-SG1/M103202L889-SK1 (antibody, human IgG1, kappa)
heavy: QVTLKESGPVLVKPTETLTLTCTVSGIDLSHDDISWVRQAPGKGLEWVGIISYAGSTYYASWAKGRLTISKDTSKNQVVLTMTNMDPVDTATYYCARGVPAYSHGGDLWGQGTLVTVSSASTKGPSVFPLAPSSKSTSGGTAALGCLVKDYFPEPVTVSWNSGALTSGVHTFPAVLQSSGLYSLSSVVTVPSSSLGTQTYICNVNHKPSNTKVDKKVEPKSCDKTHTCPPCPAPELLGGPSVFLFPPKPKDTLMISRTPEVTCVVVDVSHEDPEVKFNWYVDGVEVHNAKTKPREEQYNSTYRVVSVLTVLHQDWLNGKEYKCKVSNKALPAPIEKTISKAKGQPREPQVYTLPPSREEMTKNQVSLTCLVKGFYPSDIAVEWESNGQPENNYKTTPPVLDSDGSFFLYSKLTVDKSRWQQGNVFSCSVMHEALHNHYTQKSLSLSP
light: B1 light
notes: Parent antibody with SG1 human heavy chain constant region; also called MS1032LO06-SG1
B8: M103205H795-MY335 / M103202L889-SK1 (antibody, human IgG1, kappa)
heavy: B2 heavy with Q238T, Q313R, D415K
light: B1 light
notes: CH with G236T/H268D/Q311R/A330K/D413K against SG1 (EU numbering); also called MS1032LO06-MY335
B9: M103205H795-PK2 / M103202L889-SK1 (antibody, human IgG1, kappa)
heavy: B2 heavy with Q238N, D270E, P398M, S402R, D415K
light: B1 light
notes: CH with G236N/H268E/A330K/P396M/S400R/D413K against SG1 (EU numbering); also called MS1032LO06-PK2; MS103205H795-PK2
B10: M103205H795-MY351 / M103202L889-SK1 (antibody, human IgG1, kappa)
heavy: B2 heavy with Q238N, Q313R, D415K
light: B1 light
notes: CH with G236N/H268D/Q311R/A330K/D413K against SG1 (EU numbering); also called MS1032LO06-MY351
B11: M103205H795-MY101 / M103202L889-SK1 (antibody, human IgG1, kappa)
heavy: B2 heavy with Q238N, D270E, P398M
light: B1 light
notes: CH with G236N/H268E/A330K/P396M against SG1 (EU numbering); also called MS1032LO06-MY101
B12: M103205H795-MY201 / M103202L889-SK1 (antibody, human IgG1, kappa)
heavy: B2 heavy with Q238N
light: B1 light
notes: CH with G236N/H268D/A330K against SG1 (EU numbering); also called MS1032LO06-MY201
B13: M103205H795-MY344 / M103202L889-SK1 (antibody, human IgG1, kappa)
heavy: B2 heavy with Q238N, Q297L, Q313R, D415K
light: B1 light
notes: CH with G236N/H268D/Q295L/Q311R/A330K/D413K against SG1 (EU numbering); also called MS1032LO06-MY344
B14: M103205H795-MY205 / M103202L889-SK1 (antibody, human IgG1, kappa)
heavy: B2 heavy with Q238N, Q297L
light: B1 light
notes: CH with G236N/H268D/Q295L/A330K against SG1 (EU numbering); also called MS1032LO06-MY205

The binders below were run against T8, cynomolgus monkey FcγRIIIaS extracellular domain, His-tagged (cynomolgus monkey, UniProt A3RFZ7 21-206 (rhesus entry)) (assay: SPR (BIACORE), antibody captured, FcγR as analyte, 25°C).
T8 construct: also called cyno FcgRIIIaS; cynoFcγRIIIaS; not shown: His-tag added to the C-terminus
Protocol: (§1) The kinetic analysis of interactions between these antibodies and FcγR was carried out using BIACORE® T200 or BIACORE® 4000 (GE Healthcare). HBS-EP+ (GE Healthcare) was used as the running buffer, and the measurement temperature was set to 25° C. A chip produced by immobilizing Protein A. Protein A/G or mouse anti-human IgG kappa light chain (BD Biosciences) onto a Series S Sensor Chip CM4 or CM5 (GE Healthcare) by the amine-coupling method was used. […] After the measurement, the antibody captured on the chip was washed off by allowing reaction with 10 mM glycine-HCl, pH1.5 and 25 mM NaOH so that the chip was regenerated and used repeatedly. The sensorgrams obtained as measurement results were analyzed by the 1:1 Langmuir binding model using the BIACORE® Evaluation Software to calculate the binding rate constant ka (L/mol/s) and dissociation rate constant kd (l/s), and the dissociation constant KD (mol/L) was calculated from these values. […] Regarding such interactions, KD values were calculated using the following 1:1 binding model described in BIACORE® T100 Software Handbook BR1006-48 Edition AE.
(§2) The behavior of interacting molecules according to the 1:1 binding model on BIACORE® can be described by Equation 1: Req=C·R max/(KD+C)+RI, wherein, Req is a plot of steady-state binding levels to analyte concentration. C is concentration, RI is bulk refractive index contribution in the sample, and Rmax is analyte binding capacity of the surface. When this equation is rearranged, KD can be expressed as Equation 2: KD=C·Rmax/(Req−RI)−C. KD can be calculated by substituting the values of Rmax, RI, and C into Equation 1 or Equation 2. From the current measurement conditions, RI=0, C=2 μmol/L can be used.

Kd | Binder
360 nM | B1
780 nM | B2
650 nM | B3
2800 nM | B4
5700 nM | B5
74 nM | B6

Biological target: T1, human FcγRIIaR extracellular domain, …
Assay: as above
Protocol: as §1, §2

Kd | Binder
1100 nM | B1
710 nM | B2
1800 nM | B3
710 nM | B4
1900 nM | B5
1100 nM | B6

What follows are binders tested against T9, human FcγRIIIaV extracellular domain, His-tagged (human, UniProt P08637 17-208) in the same assay as above.
T9 construct: also called human FcgRIIIaV; not shown: His-tag added to the C-terminus
T9 sequence (P08637 17-208 F176V): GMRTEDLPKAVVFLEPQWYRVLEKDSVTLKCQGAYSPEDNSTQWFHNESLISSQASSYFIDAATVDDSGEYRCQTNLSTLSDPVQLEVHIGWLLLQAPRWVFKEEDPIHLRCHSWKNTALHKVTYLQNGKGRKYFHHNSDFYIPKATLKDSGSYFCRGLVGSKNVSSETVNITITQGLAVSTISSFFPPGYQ
Protocol: as §1, §2

Kd | Binder
810 nM | B1
2300 nM | B2
3000 nM | B3
5000 nM | B4
24000 nM | B5
11000 nM | B6

These binders were tested against T2, human FcγRIIb extracellular domain, … in the same assay as above.
Protocol: as §1, §2

Kd | Binder
4600 nM | B1
3500 nM | B2
6100 nM | B3
6000 nM | B4
1100 nM | B5
5300 nM | B6

Biological target: T3, cynomolgus monkey FcγRIIa1 …
Assay: as above
Protocol: as §1, §2

Kd | Binder
3200 nM | B1
3200 nM | B2
4500 nM | B3
1900 nM | B4
1400 nM | B5
3700 nM | B6

Biological target: T4, cynomolgus monkey FcγRIIa3 …
Assay: SPR (BIACORE); KD of SG1 / KD of variant;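 note: relative to parent M103205H795-SG1 carrying the SG1 human heavy chain constant region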

KD fold (SG1 = 1) | Binder
1 fold | B7
6.3 fold | B8
4.5 fold | B9
8.9 fold | B10
4.7 fold | B11
4.4 fold | B12
7.7 fold | B13
5.7 fold | B14

The binders below were run against T5, human FcγRIIb extracellular domain, … (assay: SPR (BIACORE); KD of SG1 / KD of variant;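 note: relative to parent M103205H795-SG1 carrying the SG1 human heavy chain constant region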).

KD fold (SG1 = 1) | Binder
1 fold | B7
2 fold | B8
7.8 fold | B9
3.8 fold | B10
9.4 fold | B11
4.2 fold | B12
6.4 fold | B13
8.2 fold | B14

Each binder was assayed against T6, human FcγRIIaH extracellular domain, … (assay: SPR (BIACORE); KD of SG1 / KD of variant;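 note: relative to parent M103205H795-SG1 carrying the SG1 human heavy chain constant region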).

KD fold (SG1 = 1) | Binder
1 fold | B7
2.4 fold | B8
1.2 fold | B9
0.7 fold | B10
1.4 fold | B11
0.8 fold | B12
1 fold | B13
1.5 fold | B14

Biological target: T7, cynomolgus monkey FcγRIIa2 …
Assay: SPR (BIACORE); KD of SG1 / KD of variant;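 note: relative to parent M103205H795-SG1 carrying the SG1 human heavy chain constant region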

KD fold (SG1 = 1) | Binder
1 fold | B7
3 fold | B8
3.9 fold | B9
6.7 fold | B10
4.3 fold | B11
3.6 fold | B12
4.6 fold | B13
4.6 fold | B14
